# Assay: label from the status in PepcDB records
row,Sequence,protein production
1,MIHSRTILVPTLLFQLALALPLAAGADSRCDDAKRLAATIPVQADGDTTRKTEDVVLESCADGAAGYFVRGLRAERAGRHDEAIKDYREALRLEPAFPRAQGNLGLALLAKGSHDDAVVELTRAISSDPDPGYHHGLAMIFGQRKIYSLALYHYAEAAKGLPADPVIPTELAALYREMGKVSDAEKQYRKALSLSPSHEEARVGLASLYMAEGRTDRAIEELKQAQIASPGNKEVSSLLAEAYEKKGDRQAADYQSLLAGKQRGVLSDERLRRGDELMQAKEYAKAAEEFKAALREKPDWPEALMRLAEAQTAAGFDDEAITSYKELIRLKLGTGDTHYNLGVLYERKGLIDEAVVEYKQAIHSSPDNGDARRRLADIYALRGSYPQAIEQYRELLKKGDNNPVLHLKLARALLGAKNPKEAMASYQDALKIAPDNLEARRELAALYRKGNQNEEAEKQYKEILRIKKDDAEARNILTALYVKSKKYDELITLLKDGVELAPNDPASHYKLGLIYEFKKDYDAAEQEYKKAVELKGDHAKSLNALGRIYLKTGKISEAKGALEAAKKADPGMEETAVLLSNIKEELSPEPPRYSKKGRKGKASKEAKKSRASKKKSSKKGAKATSKKSSTKSGGKAKKAKKSH,failed
2,MGGAVLAQPPGPTPTDGVPLRSSQPAVQVEPAPTTATAAPIERLFPKLTGRVVDTAQLLTPSAQVYLAQMLERLEQTTTDQVVVATVPSLGGHSIEEFGLQLGRHWGIGRKDKNNGVLLLVAKDDRKVRIEVGYGLEGRLNDIVAHFIIDGSIIPYFKDDLYSSGIIAGATSIVSVLSSTDRPMLVYRSVEKNWYQDIEWMWWFERLFYLVFVGVPLFGFLTQWRSGDDSPVVASGDSARRETRAERDTGSSSSAFDWFDSSSSSSSSSSDSFSGGGGSFGGGGASGSW,failed
3,MEHDLNDMMVFLAVVETGSFTLAADRLGMPKANVSRKVSRLEKNLAVTLLERSTRSQHLTEAGRRYLAHCKRIHEELDLATASVCELFHSYTGELKIGASVASGQQVLRPALGKFMRQYPDLKVQLNLVNRRVDFIEEGFDVVIRIGQLNDSMLIAKKLGAINRKIFASPSYLAKQGNPDKVEQLTEHQLLIMNPLNISGNKDLKLPLTSTDHETFTLDCQPRLLVDDFSMLKQAIVDGLGIGVLPDYMCRQEVASGQLVNILPDWGMAKVDIYALYPKHRAKIPKVKAFIDFVSELYGEVL,not failed
4,MKVSCCFGTCLKHLDPACVKTSRRIAILHSALPRQRPPPALECPAFSFGDSDMTDQRKGSDAEPTTHFGFKNVPESQKAEKVAEVFHSVAAKYDLMNDVLSGGMHRLWKRFTIELSGVRAGNRVLDIAGGTGDLTKRFSHLVGPTGQVVLADINESMLKVGRDRLLDLGVAGNVEFVQADAEKLPFPDNHFDCVTIAFGLRNVTHKEDALRSMLRVLKPGGRLLVLEFSKPTNALMSKVYDAYSFAFMPLAGKLITNDSESYRYLAESIRMHPNQETLKSMMVEAGFDRVTYHNMTAGIVALHRGIKP,failed
5,MSSNIAVVGDRDTVTGFRLGGVREGYVVETPDEAEETIRNLIRDGFSIIIVTEKIGDELREFIEETTSSSALPMIIEIPDKTGPSERETDPLRDLIKRVIGVEMVK,failed
6,TELQAVTGRAEIAGERLKLLYDAGLGIGTTLDVLRTADELAQVAVPRFADFVTVDLADAVLHGEEPAPTATDLRRTAVCGIRDDHPLYELGQLIDFLPSTPQARGYGSGYSELVTDLSTATGWHAQDPERTKAIIDYGIHSLIAAPIQARGVVLGMANFWRSKQHEPFVEEEMSLAEELVARAAVSIDNARRYTREHALAVTLQRSLLPRALP,failed
7,MGHHHHHHSHMPLVKRNIDPRHLCHTALPRGIKNELECVTNISLANIIRQLSSLSKYAEDIFGELFNEAHSFSFRVNSLQERVDRLSVSVTQLDPKEEELSLQDITMRKAFRSSTIQDQQLFDRKTLPIPLQETYDVCEQPPPLNILT,not failed
8,MEKAMPESFVVRREAHLAAPPAAVFALMTDPEKILRWMGTEAEVEPEPGGLYLVNVTGARFARGSFREVVPVHRLAYSFGWDGSEVVPPGSSLVEIDLIEQGGGTLLRLTHSGLPSAEQCAGHEEGWAHYLGRLTEVAAGRDPGLEHHHHHH,failed
9,MIDILNLALPYFGLIFVGFACGRWKKLPEQGLVWMNFFLVFVSLPALFFRIMSKTPFEELNNLPFVLATTLATAIAFFLSGMLGRLIGKLSMREATMAALSGGYGNIGYMGPGLALAVLGTQAAAPTALIFCFDTIFLFSIVPLGMALTAADKRPLIPTIIAVLREILFHPLIVAAYCGAAAAAFHVELPVAVDKMLAFLQNAAAPVALFTLGVTVALRPFGRVPWEIPSLVAVKLLLHPVIVFCLVLAFGPFSPEWAATAVLMASLPPALNVFVIARQYNTWVEPASVAVLIGTFMSVVTLTTVMWLIRTGQIPFPA,failed
10,MSDSKFLRGTLIVTLGTFLVKFLGMIYVFPFHALVGTEGGTLYTYGYIPYTIFLSIATAGVPLAVSKFVSKYNALGDYKTSRRMFRSGMVMMIVTGVLSFLVLYMTAPLFAEAMLGKQSIHNNVGEVTTIIRLVSFALIVVPAASLIRGYFQGHQSMGPTTVSQIIEQIIRIVFLLAGSFIVIKVLGGTVATAVGVATFAAFVSAVGALGVLIWYWLKRKKYLDQYLIEQTVPESTVSTVQLFKELFAYAIPYVVIGLTIPLYQQIDTLTFNSIMQAIGQGDIAERALGIFTMWTHKLIMIPVSLATAFSLTLVPAITKSFTEKQYRYLKLQITQTFQANMFLTLPAVVGISSLAYPIYTAFYDSDPLGGQVLMWYAPVALLFALFTVTAAILQGINQQKHAIIALIMGVILKFVCNVIFIRYFGTVGAILATAVGFLASVWYTNQQIKKYAHYSFGVVYKRTFQIAVLTLIMVVAVKLSQWILSFMISPDGRIGALITVAICAGIGGLVYGLLAIRTGVLERVFGGEALDKIQRKLGSRFKIKLKSRGA,not failed
11,MIIRDQLILSIDNDLRDLIKARDIGVIYVYREETGEPEPGPSIEDIDLPEPLLEALKKRGIRRLYRFQYDAYKSILNGENVVITAGTGTGKTEAFLLPILSKIYEKRTPNPQAMLVYPTKALARDQLQRINDYLGYGVFSAAVYDGDTPRRIRQKISANPPDIVVTNPDMIHVGLVLSPTIRRFVKASQFMVIDELHVYEGVFGSNVKCVFERINKYRRNNPPQYIGSSATIGNPREHAETLFGVPVKVIEGPLRRRGIAYHVLVSAGKLSRWTVTAALASVLARRGLRFIVFVDSQQMAELIARIAWRSYGVDIMVHRAGLPADERKMIESKLRAGEISGVAATPTLELGIDIGFLDAVIMAAPPPSFAKYLQRAGRAGRRGRKGYVFTVLADDPIDAYYERNPKRYFEQEIPPLYMDPENEEVLRIHLLALLLEQGRIRRDELKRAWLRVAERLRYERLVAWVGPYIYPNYRLARKIFMEYMSIRGSGPQVVIYDVDEKNIVGYRELPQAVLDLHPDAVYLLNRRVYKSIEIDVDKKIARVKRLPDDTPYYTRPLYTVDLVDYSILASRTSSRGIPLAYAWVKLSINVEGYIVRNYWETEKAGIKYWFDHPITYTYNTKALLLKYPENPEWDYMSNAEAFHAIEHALISAARPVCGAALGEMGGISYPSGDIVIYDGAPGGSGLAKLLFERFEKAEEIAYEIVSKCDCEDGCPRCIYSPYCGNNNQVLSRRKATYVLGNILKRGAVKVMEPIKNRYGKPIV,failed
12,MIMFNYQQTSQSCVKCGKCIPSCTIYNIHPDEVTSPRGFIDLLGAYQRGELELDKNAKDIFEKCFLCTNCTYVCPNLLPTDQVIENVRAEIAQKFGIAWFKRAYFFLLRNRWLEHHHHHH,failed
13,MRKRYVMTEQVQSGPRLDWLLDGLVDRIPEIRCAIVLSGDGLLIGKSKNLRRDDAEHLSAVGSGMHSLARGAARHFHGGEVQQTVIQMDRAFLFVTAAGRGARLAAIASEQVDVGMMAFEMGTLVKQVGQYLSAAPRVETPSAGHIQDA,failed
14,MARVQIDLPDKFIYSTKLQVRIGDVAAGFHMGNHMLISYLNEALLLFFREAGVIGMFGTKMNLIDADLAVIYKTEAAHGDMLRVDLGIIPSGIYGFDAFYRVTNERTGEEIAIAKMAMLFFDYEQRQISPVPEAFTVALPKIYNRAIPSTE,failed
15,MTRAINDPGNEDPGSLLETDADALLGGAAAQAPEERCRLAAQACIRACERYLALCTESSREQRQHAGDCADLCRLAALLLERRSPWAPAACELAARYALACAERCDGDEPLERECAGACRRFVEACRPLLPA,not failed

# Reference: a protein production outcome set (Wang et al. 2014)
